Assay results reported in patent KR20180136327A (dated 2018).

Target: T1, Endothelin receptor type A (ET A) on cells (human, UniProt P25101 21-427)
T1 chain: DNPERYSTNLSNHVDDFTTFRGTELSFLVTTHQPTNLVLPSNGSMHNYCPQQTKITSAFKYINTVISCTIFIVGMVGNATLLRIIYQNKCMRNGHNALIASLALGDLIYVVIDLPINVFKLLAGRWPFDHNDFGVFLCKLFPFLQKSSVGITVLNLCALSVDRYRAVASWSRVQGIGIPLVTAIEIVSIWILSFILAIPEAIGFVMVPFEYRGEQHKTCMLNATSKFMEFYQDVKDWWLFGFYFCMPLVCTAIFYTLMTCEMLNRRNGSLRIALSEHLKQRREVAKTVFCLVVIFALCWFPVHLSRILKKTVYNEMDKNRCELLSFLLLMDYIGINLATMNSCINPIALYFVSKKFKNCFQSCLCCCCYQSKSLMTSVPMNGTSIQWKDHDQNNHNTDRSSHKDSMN
Experiment: cell-based or functional assay

K i; inhibition of signalling induced by 10 nM ET-1 (cytosolic Ca2+, Fura-2-AM 340/380 nm ratio) in ET A expressed CHO-K1 stable cell line: 56 nM
K i; inhibition of signalling induced by 10 nM ET-1 (cytosolic Ca2+, Fura-2-AM 340/380 nm ratio) in HT-29 colon cancer cells: 51 nM
B1: 발굴항체 (anti-ET A human antibody, VH SEQ ID NO 12 / VL SEQ ID NO 13) fused to Cκ, scAb format (scFv, V domains shown)
VH: EVQLVESGAEVRKPGASVKVSCKASGYTFTSSDINWIRQATGQGLEWMGYMNPKNGNTDYAQKFQGRISMTRDSSISTAYMELSSLRSEDTAVYYCAKDRYGSGTYGFGMDVWGPGTLVTVS
VL: DIVMTQSPSAMSASVGDRVSITCRASQGINNYLAWFQQKPGKVPKRLMDVGSILQSGIPSRFRGRGSGTQFTLTISSLQAEDSGTYFCLQHNTYPLTFGPGTKVEIKR
